{"source": "patent US20130116201", "about": "“USE OF PEPTIDES AS TRANSPORTERS […] FOR THE INTERNALIZATION OF MOLECULES OF […] INTO TARGET CELLS” (UNIVERSITE JOSEPH FOURIER, published 2013)", "binders": {"B1": {"name": "AP-1 probe (dsDNA)", "DNA 1": "AGCACTGACTCATGAAGT", "DNA 2": "TACTTCATGAGTCAGTGCT"}}, "key": {"ZEBRA full-length (Z-FL)": {"target": "ZEBRA full-length (Z-FL) (Epstein-Barr virus, UniProt P03206 P03206:1-245)", "sequence (P03206 whole entry, one chain of several)": "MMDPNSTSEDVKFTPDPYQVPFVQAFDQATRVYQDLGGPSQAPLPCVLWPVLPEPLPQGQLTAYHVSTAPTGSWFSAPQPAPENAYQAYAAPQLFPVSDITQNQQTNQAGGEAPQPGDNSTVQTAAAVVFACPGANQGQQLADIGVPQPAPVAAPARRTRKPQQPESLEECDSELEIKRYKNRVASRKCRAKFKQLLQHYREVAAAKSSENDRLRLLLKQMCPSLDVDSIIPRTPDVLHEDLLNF", "assay": "EMSA; poly(dI-dC), 1 mM DTT, 4 C", "settings": "tags: N-terminal His6 (pET15b); chain copies: 2; label: biotin"}, "ZEBRA Z6": {"target": "ZEBRA Z6 (Epstein-Barr virus, UniProt P03206 SEQ:1-75)", "sequence (P03206 171-245)": "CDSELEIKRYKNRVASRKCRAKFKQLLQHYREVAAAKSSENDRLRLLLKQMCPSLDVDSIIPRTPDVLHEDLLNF", "assay": "EMSA; efficiency almost equal to full-length ZEBRA; poly(dI-dC), 4 C", "settings": "tags: N-terminal His6 (pET15b); chain copies: 2; label: biotin"}, "ZEBRA Z4": {"target": "ZEBRA Z4 (Epstein-Barr virus, UniProt P03206 SEQ:1-105)", "sequence (P03206 141-245)": "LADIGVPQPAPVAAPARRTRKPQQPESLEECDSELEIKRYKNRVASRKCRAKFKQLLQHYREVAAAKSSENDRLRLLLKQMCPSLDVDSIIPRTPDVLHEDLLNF", "assay": "EMSA; efficiency almost equal to full-length ZEBRA; poly(dI-dC), 4 C", "settings": "tags: N-terminal His6 (pET15b); chain copies: 2; label: biotin"}, "ZEBRA Z2": {"target": "ZEBRA Z2 (Epstein-Barr virus, UniProt P03206 P03206:1-170)", "sequence (P03206 1-170, one chain of several)": "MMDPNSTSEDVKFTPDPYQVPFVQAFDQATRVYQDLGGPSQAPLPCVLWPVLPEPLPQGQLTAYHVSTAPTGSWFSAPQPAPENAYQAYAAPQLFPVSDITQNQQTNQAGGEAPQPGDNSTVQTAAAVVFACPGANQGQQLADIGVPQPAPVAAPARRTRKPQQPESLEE", "assay": "EMSA; neither DIM nor DB domain", "settings": "tags: N-terminal His6 (pET15b); label: biotin"}, "ZEBRA Z3": {"target": "ZEBRA Z3 (Epstein-Barr virus, UniProt P03206 P03206:1-140)", "sequence (P03206 1-140, one chain of several)": "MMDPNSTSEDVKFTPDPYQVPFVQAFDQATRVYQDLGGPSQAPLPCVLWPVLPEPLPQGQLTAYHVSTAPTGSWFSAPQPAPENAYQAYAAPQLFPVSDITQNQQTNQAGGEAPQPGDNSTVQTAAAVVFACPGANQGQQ", "assay": "EMSA; neither DIM nor DB domain", "settings": "tags: N-terminal His6 (pET15b); label: biotin"}, "ZEBRA Z8": {"target": "ZEBRA Z8 (Epstein-Barr virus, UniProt P03206 P03206:195-245)", "sequence (P03206 195-245, one chain of several)": "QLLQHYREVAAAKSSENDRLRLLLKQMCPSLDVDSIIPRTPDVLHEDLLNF", "assay": "EMSA; dimerization domain without DNA-binding domain", "settings": "tags: N-terminal His6 (pET15b); label: biotin"}, "ZEBRA Z7": {"target": "T1, ZEBRA Z7 (Epstein-Barr virus, UniProt P03206 P03206:170-195)", "T1 chain": "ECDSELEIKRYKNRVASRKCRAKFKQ", "assay": "EMSA; no dimerization domain", "settings": "tags: N-terminal His6 (pET15b); label: biotin"}, "ZEBRA Z5": {"target": "ZEBRA Z5 (Epstein-Barr virus, UniProt P03206 P03206:140-195)", "assay": "EMSA; no dimerization domain", "settings": "tags: N-terminal His6 (pET15b); label: biotin"}}, "data": [{"binder": "B1", "values": [{"measurement": "binding result", "setting": "ZEBRA full-length (Z-FL)", "value": "binds"}, {"measurement": "binding result", "setting": "ZEBRA Z6", "value": "binds"}, {"measurement": "binding result", "setting": "ZEBRA Z4", "value": "binds"}, {"measurement": "binding result", "setting": "ZEBRA Z2", "value": "no binding"}, {"measurement": "binding result", "setting": "ZEBRA Z3", "value": "no binding"}, {"measurement": "binding result", "setting": "ZEBRA Z8", "value": "no binding"}, {"measurement": "binding result", "setting": "ZEBRA Z7", "value": "no binding"}, {"measurement": "binding result", "setting": "ZEBRA Z5", "value": "no binding"}]}]}
